Legend:
[1] = target: T1, digoxigenated protein Dig-BP4; assay: SPR (Biacore), antibody captured by anti-mouse IgG, DIG-BP4 injected
T1 chain: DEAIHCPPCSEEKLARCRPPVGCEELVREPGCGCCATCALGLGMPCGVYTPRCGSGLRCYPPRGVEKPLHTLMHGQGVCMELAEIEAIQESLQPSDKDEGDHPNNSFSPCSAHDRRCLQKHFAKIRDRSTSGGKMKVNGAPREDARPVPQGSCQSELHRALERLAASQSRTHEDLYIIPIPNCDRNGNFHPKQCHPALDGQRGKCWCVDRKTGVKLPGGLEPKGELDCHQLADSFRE
Description: (§1) Surfaces were blocked with an injection of 1 M ethanolamine/HCl pH 8.5. […] To evaluate the functionality of the recombinant <Dig> derivatives, binding of the recombinant hu<Dig> modules, incl.
(§2) Anti-mouse IgG antibody was immobilized on the surface of a CM5 biosensor chip in the same fashion as described above. […] The samples to be analyzed were diluted in HBS-P (10 mM HEPES, pH 7.4, 150 mM NaCl, 0.005% Surfactant P20) and injected at a flow rate of 5 μl/min. The contact time (association phase) was 3 min for the antibodies at a concentration between 1 and 5 nM. […] The contact time (association phase) was 3 min, the dissociation time (washing with running buffer) 5 min for each molecule at a flow rate of 30 μl/min. All interactions were performed at 25° C. (standard temperature). […] Signals were detected at a rate of one signal per second.

[2] = target: T1, digoxigenated protein Dig-BP4; assay: SPR (Biacore), antibody captured by anti-human IgG, DIG-BP4 injected
Description: as §1, §2

B1: murine <Dig> IgG1 kappa from mouse hybridoma clone 19-11 (antibody, V domains shown)
VH: EVQLVESGGGLVKPGGSLKLSCAVSGFTFSDYAMSWIRQTPENRLEWVASINIGATYAYYPDSVKGRFTISRDNAKNTLFLQMSSLGSEDTAMYYCARPGSPYEYDKAYYSMAYWGPGTSVTVSS
VL: DVQMTQSTSSLSASLGDRVTISCRASQDIKNYLNWYQQKPGGTVKLLIYYSSTLLSGVPSRFSGRGSGTDFSLTITNLEREDIATYFCQQSITLPPTFGGGTKLEIK
notes: also called murine DIG-IgG 19-11; mu<Dig> 19-11
For B1, the Kd [1] was 33 pM.

B2: humanized <Dig> IgG (antibody, V domains shown)
VH: QVQLVESGGGLVKPGGSLRLSCAASGFTFSDYAMSWIRQAPGKGLEWVSSINIGATYIYYADSVKGRFTISRDNAKNSLYLQMNSLRAEDTAVYYCARPGSPYEYDKAYYSMAYWGQGTTVTVSS
VL: DIQMTQSPSSLSASVGDRVTITCRASQDIKNYLNWYQQKPGKAPKLLIYYSSTLLSGVPSRFSGSGSGTDFTLTISSLQPEDFATYYCQQSITLPPTFGGGTKVEIKR
notes: also called hu<Dig> IgG; DIGHu2
B2 was tested, and the Kd [2] was < 76 pM.

From US20130280279A1 (Hoffmann-La Roche, published 2013)
